Measurements taken from article PMC4994250, “A new mode of SAM domain mediated oligomerization observed in the CASKIN2 neuronal scaffolding protein” (Cell Communication and Signaling : CCS, 2016).

What was measured:
[1] = target: the molecule itself; assay: AUC; sedimentation velocity, 300 mM NaCl, 20 mM sodium phosphate pH 7.8, 20 °C, 50,000 rpm; 10 and 34 μM loading, Kd fitted from the 34 μM experiment; monomer-dimer equilibrium (dimer to monomers)
[2] = target: the molecule itself; assay: crystal structure; selenomethionine labeled SAM1-SAM2, 0.6 mM in T300 buffer, hanging drop at 4 °C, 0.1 M Tris pH 7.5, 2.4 M sodium formate, 5 mM DTT; SAD, 2.75 Å; one tandem in the asymmetric unit
[3] = target: the molecule itself; assay: AUC; sedimentation velocity, 150 mM NaCl, 20 mM sodium phosphate pH 7.8, 20 °C, 50,000 rpm; 10 and 34 μM loading, Kd fitted from the 34 μM experiment; monomer-dimer equilibrium (dimer to monomers)

B1: human CASKIN2 SAM1-SAM2 tandem (483-634), wild type (domain or fragment)
chain: not shown
modifications: selenomethionine in the protein used for crystals; uniform 15N label in the NMR samples
notes: CASKIN2, human, tandem SAM domains SAM1-SAM2, residues 483-634 of Uniprot Q8WXE0; Cloned into BamHI/XhoI of pET28; the vector probably adds an N-terminal His tag with linker residues (surmise); also called CASKIN2 SAM tandem; wild type SAM tandem; source: E. coli BL21:DE3, purified (Nickel-NTA, gel filtration)
Kd [1]: 27.6 µM | stoichiometry N [2]: 2 | Kd [3]: 52.9 µM
